From patent US20260109776A1 (Amgen, published 2026)
Read-outs that look alike come from different tables or passages of the source.

Legend:
human CD40 on cells [1] = target: T1, human CD40 on cells (human, UniProt P25942 21-277); assay: flow cytometry, labelled CD40L on CD40-293T cells, antibody at 5 ug/ml
T1 construct: also called CD40 receptor on human B cells
Method: (§1) Percent ligand binding inhibition was calculated as [(CD40L binding gMFI in the absence of anti-CD40)−(CD40L binding gMFI in the presence of anti-CD40)]/(CD40L binding gMFI in the absence of anti-CD40). gMFI: geometric mean fluorescent intensity. All anti-CD40 antibodies show minimal effects on the ability of CD40L to bind to the CD40 receptor (Table 7).
Target sequence in this assay (P25942 21-277 limits assumed): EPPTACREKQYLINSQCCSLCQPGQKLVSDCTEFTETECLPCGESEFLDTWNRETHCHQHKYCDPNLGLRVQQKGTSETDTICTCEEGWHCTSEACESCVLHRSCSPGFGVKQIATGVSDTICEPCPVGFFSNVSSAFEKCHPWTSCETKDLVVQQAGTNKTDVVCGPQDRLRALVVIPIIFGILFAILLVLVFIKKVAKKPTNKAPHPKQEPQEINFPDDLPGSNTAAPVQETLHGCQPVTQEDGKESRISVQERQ

[2] = target: T2, cynomolgus monkey CD40 on cells (cynomolgus monkey, UniProt P25942 21-277 (human entry)); assay: flow cytometry, HEK293 transfectants vs control cells
T2 construct: also called cyno CD40 on HEK293 cells; CD40 on cynomolgus monkey B cells
T2 chain: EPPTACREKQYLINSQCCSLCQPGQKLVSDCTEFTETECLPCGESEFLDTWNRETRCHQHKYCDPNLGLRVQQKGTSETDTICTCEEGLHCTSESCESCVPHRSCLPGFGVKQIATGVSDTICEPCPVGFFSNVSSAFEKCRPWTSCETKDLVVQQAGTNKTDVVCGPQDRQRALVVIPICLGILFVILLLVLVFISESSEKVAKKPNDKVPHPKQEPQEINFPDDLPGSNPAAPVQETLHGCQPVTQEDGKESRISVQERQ
Method: (§2) The binding affinity of anti-human CD40 antibodies to human and cynomolgus monkey CD40 was measured by Octet assay (Table 3), quantifying association rate (Kon), disassociation rate (Kdis), and equilibrium binding constant (KD). Cross-reactivity of anti-CD40 antibodies to related TNF receptor superfamily (TNFRSF) members was evaluated by expressing human TNFR1, TNFR2, TNFR10, or TNFR14 on HEK293 cells by transient transfection of expression vectors encoding these genes. Binding of indicated anti-human CD40 antibody to these transfected cells was determined by flow cytometry. […] Cross-reactivity of anti-CD40 antibodies to cynomolgus monkey and mouse CD40 was evaluated by expressing cynomolgus monkey or mouse CD40 on HEK293 cells by transient transfection of expression vectors encoding these genes. Binding of indicated anti-human CD40 antibody to cells overexpressing cynomolgus monkey and mouse CD40 was determined by flow cytometry.

human TNFR14 [3] = target: T3, human TNFR14 (human, UniProt Q92956 39-283); assay: as above
T3 construct: whole, on cells
T3 sequence (looked up): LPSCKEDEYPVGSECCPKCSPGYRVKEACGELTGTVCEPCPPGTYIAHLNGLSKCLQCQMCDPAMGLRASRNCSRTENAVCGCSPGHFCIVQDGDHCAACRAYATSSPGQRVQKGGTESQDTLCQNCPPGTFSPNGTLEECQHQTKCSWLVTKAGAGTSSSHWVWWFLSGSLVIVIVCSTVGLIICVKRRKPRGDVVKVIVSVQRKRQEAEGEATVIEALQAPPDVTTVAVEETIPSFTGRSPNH
Method: as §2

human TNFR1 [4] = target: T4, human TNFR1 (human, UniProt P19438 30-455); assay: as above
T4 construct: whole, on cells
T4 sequence (looked up): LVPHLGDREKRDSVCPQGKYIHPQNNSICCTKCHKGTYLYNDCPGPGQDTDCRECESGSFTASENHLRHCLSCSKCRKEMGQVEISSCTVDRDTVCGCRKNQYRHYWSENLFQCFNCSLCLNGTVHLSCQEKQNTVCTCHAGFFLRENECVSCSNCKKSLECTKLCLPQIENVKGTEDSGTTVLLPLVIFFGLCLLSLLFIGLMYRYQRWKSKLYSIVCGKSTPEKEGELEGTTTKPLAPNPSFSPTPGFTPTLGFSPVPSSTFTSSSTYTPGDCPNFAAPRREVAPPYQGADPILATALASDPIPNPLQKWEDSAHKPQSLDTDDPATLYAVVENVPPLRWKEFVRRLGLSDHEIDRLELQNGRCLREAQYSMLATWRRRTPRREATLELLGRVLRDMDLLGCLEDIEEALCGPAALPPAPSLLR
Method: as §2

mouse CD40 on cells [5] = target: T5, mouse CD40 on cells (mouse, UniProt P27512 20-289); assay: as above
T5 construct: whole, on cells; also called mouse CD40 on HEK293 cells; CD40 on mouse B cells
T5 sequence (looked up): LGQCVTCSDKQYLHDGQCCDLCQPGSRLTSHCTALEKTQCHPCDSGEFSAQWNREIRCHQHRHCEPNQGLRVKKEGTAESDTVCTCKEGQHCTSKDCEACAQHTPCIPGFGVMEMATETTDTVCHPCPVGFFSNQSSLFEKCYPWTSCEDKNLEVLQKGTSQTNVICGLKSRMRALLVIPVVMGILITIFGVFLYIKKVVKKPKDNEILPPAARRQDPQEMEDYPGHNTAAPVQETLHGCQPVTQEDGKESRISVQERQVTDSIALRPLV
Method: as §2

human TNFR10 = target: T6, human TNFR10 (human); assay: as above
T6 construct: whole, on cells; Name as printed is ambiguous (TNFRSF10A-D)
Method: as §2

human TNFR2 [6] = target: T7, human TNFR2 (human, UniProt P20333 23-461); assay: as above
T7 construct: whole, on cells
T7 sequence (looked up): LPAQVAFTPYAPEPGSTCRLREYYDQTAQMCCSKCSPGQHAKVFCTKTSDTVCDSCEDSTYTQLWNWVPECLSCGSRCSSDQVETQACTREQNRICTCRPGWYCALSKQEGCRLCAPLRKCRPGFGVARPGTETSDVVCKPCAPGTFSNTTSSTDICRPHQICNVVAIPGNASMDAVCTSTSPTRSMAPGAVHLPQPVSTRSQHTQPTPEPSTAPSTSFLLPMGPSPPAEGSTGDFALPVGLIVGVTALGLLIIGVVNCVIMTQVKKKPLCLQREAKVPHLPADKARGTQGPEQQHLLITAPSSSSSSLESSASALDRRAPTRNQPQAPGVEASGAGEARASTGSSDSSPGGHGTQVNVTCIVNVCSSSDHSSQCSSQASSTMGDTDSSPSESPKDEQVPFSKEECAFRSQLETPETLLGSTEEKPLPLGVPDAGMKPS
Method: as §2

human CD40 on cells [7] = target: T1, human CD40 on cells; assay: flow cytometry, labelled CD40L on CD40-293T cells, antibody at 20 ug/ml
Method: as §1
Target sequence in this assay (P25942 21-277 limits assumed): as the sequence (P25942 21-277 limits assumed) above

human TNFR14 [8] = target: T3, human TNFR14; assay: flow cytometry, HEK293 transfectants
Method: as §2

human TNFR1 [9] = target: T4, human TNFR1; assay: flow cytometry, HEK293 transfectants
Method: as §2

human TNFR2 [10] = target: T7, human TNFR2; assay: flow cytometry, HEK293 transfectants
Method: as §2

human CD40 [11] = target: human CD40 (human, UniProt P25942 21-193, limits assumed); assay: Octet
Method: as §2

human CD40 on cells [12] = target: T1, human CD40 on cells; assay: cell-based or functional assay
mouse CD40 on cells [13] = target: T5, mouse CD40 on cells; assay: flow cytometry, HEK293 transfectants
human CD40 on cells [14] = target: T1, human CD40 on cells; assay: cell-based or functional assay; remark: listed apart in the source
Target sequence in this assay (P25942 21-277 limits assumed): as the sequence (P25942 21-277 limits assumed) above

human CD40 on cells [15] = target: T1, human CD40 on cells; assay: flow cytometry, labelled CD40L on CD40-293T cells, antibody at 10 ug/ml
Method: as §1
Target sequence in this assay (P25942 21-277 limits assumed): as the sequence (P25942 21-277 limits assumed) above

human CD40 on cells [16] = target: T1, human CD40 on cells; assay: flow cytometry, labelled CD40L on CD40-293T cells, antibody at 2.5 ug/ml
Method: as §1
Target sequence in this assay (P25942 21-277 limits assumed): as the sequence (P25942 21-277 limits assumed) above

human CD40 [17] = target: human CD40 (human, UniProt P25942 21-277); assay: cell-based or functional assay
cynoCD40(1-193) = target: T8, cynoCD40(1-193) (cynomolgus monkey, UniProt P25942 21-193 (human entry)); assay: Octet
T8 construct: also called soluble cynomolgus monkey CD40
T8 chain: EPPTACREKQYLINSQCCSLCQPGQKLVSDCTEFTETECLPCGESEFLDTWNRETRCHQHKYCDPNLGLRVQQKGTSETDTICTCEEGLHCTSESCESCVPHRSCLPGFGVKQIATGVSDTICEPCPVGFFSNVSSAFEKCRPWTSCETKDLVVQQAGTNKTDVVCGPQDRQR
Method: (§3) A panel of mesothelin×CD40 bispecific antibodies were generated in the IgG-scFv format (Table 13) and evaluated for binding to soluble forms of human and cynomolgus monkey CD40 and human and cynomolgus monkey mesothelin using the Octet assay (Table 14). Association rate (Kon), disassociation rate (Kdis), and equilibrium binding constant (KD) were calculated. […] These bispecific antibodies were next evaluated for their ability to induce mesothelin-dependent activation of human B cells. CHO cells expressing human mesothelin were seeded into a 96 well plate. The next day varying concentrations of the mesothelin×CD40 IgG-scFv antibodies were added to the wells along with purified human B cells and the plates were incubated for an additional 48 hours. Upregulation of CD86, a marker of CD40-mediated B cell activation, was quantified on B cells by flow cytometry.

huMSLN(296-598) = target: T9, huMSLN(296-598) (human, UniProt Q13421 296-598); assay: Octet
T9 construct: also called soluble human mesothelin
Method: as §3

cynoMSLN(296-598) = target: T10, cynoMSLN(296-598) (cynomolgus monkey); assay: Octet
T10 chain: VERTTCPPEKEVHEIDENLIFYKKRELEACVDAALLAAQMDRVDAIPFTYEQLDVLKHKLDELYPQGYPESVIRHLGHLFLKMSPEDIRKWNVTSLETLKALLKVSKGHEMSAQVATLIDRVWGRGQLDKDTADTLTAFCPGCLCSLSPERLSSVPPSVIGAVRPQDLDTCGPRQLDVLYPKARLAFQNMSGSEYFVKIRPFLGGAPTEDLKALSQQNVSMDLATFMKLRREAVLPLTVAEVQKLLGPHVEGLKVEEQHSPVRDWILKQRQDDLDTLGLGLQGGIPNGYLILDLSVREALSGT
Method: as §3

huCD40(1-193) = target: T11, huCD40(1-193) (human, UniProt P25942 21-193); assay: Octet
T11 construct: also called soluble human CD40
Method: as §3

T9 sequence (Q13421 other isoform, or with tags, fused parts or gaps): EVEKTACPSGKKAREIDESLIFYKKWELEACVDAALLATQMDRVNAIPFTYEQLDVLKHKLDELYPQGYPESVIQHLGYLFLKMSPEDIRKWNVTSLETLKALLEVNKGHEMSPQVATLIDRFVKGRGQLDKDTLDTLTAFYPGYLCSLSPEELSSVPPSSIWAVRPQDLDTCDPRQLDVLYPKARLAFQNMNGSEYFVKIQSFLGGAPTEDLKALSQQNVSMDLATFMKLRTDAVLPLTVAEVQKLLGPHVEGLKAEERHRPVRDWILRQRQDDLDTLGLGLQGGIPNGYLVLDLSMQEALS
human CD40 (human, UniProt P25942 21-193, limits assumed), sequence (P25942 21-193 limits assumed): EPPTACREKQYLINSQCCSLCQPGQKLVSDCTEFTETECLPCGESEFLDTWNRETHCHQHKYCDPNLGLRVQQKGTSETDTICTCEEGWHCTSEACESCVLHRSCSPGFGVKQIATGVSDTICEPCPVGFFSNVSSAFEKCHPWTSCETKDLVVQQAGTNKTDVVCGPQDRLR

B1: 33H9 (antibody, IgG4, V domains shown)
VH: QVQLVESGGGVVQPGRSLRLSCAASGFTFSSHGMHWVRQPPGKGLEWVAVIWYDGSNEYYGDSVKGRFTISRDNSKNTLYLQMNSLRVEDTAVYYCTRGGGHWNYEGHYYGMDVWGQGTTVTVSS
VL: QAVPTQPSSLSASPGASASLTCTLRSGINVGSSRIYWYQQKPGSPPQFLLRYTSDSDKLQGSGVPSRFSGSKDASANAGLLLISGLQSEDEADYYCMIWHSSAVVFGGGTKLTVLG
notes: also called 4897-1
Ligand Binding Inhibition (%) (human CD40 on cells [1]): 9%
fold over control (gMFI) [2]: 73 fold
fold over control (gMFI) (human TNFR14 [3]): 0.88 fold
fold over control (gMFI) (human TNFR1 [4]): 1.03 fold
fold over control (gMFI) (mouse CD40 on cells [5]): 0.9 fold
fold over control (gMFI) (human TNFR10): 0.89 fold
fold over control (gMFI) (human TNFR2 [6]): 0.93 fold
Ligand Binding Inhibition (%) (human CD40 on cells [7]): 1%
binding result (human TNFR14 [8]): no binding
binding result (human TNFR1 [9]): no binding
binding result (human TNFR2 [10]): no binding
Kd (human CD40 [11]): 0.58 nM
koff (human CD40 [11]): 0.000238 s⁻¹
kon (human CD40 [11]): 407000 M⁻¹ s⁻¹
human B cell proliferation, no crosslinking, EC50 (human CD40 on cells [12]): > 16.7 nM
human B cell proliferation, no crosslinking, Max Fold Change (human CD40 on cells [12]): 1.35 fold
human B cell proliferation, with protein G crosslinking, EC50 (human CD40 on cells [12]): 0.344 nM
human B cell proliferation, with protein G crosslinking, Max Fold Change (human CD40 on cells [12]): 23.2 fold
binding result (mouse CD40 on cells [13]): no binding
human B cell proliferation, no crosslinking, % Max Activity (human CD40 on cells [14]): 2.3%
human B cell proliferation, no crosslinking, EC50 (human CD40 on cells [14]): > 13.4 nM
human B cell proliferation, with protein G crosslinking, % Max Activity (human CD40 on cells [14]): 88.9%
human B cell proliferation, with protein G crosslinking, EC50 (human CD40 on cells [14]): 0.19 nM
Ligand Binding Inhibition (%) (human CD40 on cells [15]): 3%
Ligand Binding Inhibition (%) (human CD40 on cells [16]): -3%

B2: 6043-2 (bispecific antibody)
heavy: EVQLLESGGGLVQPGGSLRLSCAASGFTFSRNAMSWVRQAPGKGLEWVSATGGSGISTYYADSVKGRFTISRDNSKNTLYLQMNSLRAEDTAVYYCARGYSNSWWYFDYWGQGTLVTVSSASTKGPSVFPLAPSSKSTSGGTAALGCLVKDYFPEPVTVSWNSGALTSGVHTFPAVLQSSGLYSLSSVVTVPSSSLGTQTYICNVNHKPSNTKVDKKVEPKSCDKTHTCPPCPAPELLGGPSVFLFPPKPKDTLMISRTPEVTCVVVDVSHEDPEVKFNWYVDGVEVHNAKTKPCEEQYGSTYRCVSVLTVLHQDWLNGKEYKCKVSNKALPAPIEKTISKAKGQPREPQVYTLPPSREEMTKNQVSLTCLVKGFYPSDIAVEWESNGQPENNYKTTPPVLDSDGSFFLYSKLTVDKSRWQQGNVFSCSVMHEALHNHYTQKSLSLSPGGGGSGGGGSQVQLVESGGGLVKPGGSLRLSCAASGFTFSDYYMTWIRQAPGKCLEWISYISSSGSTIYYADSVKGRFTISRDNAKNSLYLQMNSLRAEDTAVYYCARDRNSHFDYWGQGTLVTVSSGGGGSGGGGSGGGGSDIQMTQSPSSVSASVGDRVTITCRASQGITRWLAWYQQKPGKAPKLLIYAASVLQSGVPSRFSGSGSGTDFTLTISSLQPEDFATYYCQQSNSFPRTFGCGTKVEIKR
light: QSALTQPASVSGSPGQSITISCTGTSSDVGNYNLVSWYQQHPGKAPKLMIFEVNQRPSGVSNRFSGSKSGTTASLTISGLQAADEADYFCCSYTTSSTYVIFGGGTKLTVLGQPKAAPSVTLFPPSSEELQANKATLVCLISDFYPGAVTVAWKADSSPVKAGVETTTPSKQSNNKYAASSYLSLTPEQWKSHRSYSCQVTHEGSTVEKTVAPTECS
notes: IgG-scFv: IgG (CD40) 30A12, scFv (MSLN) 4H6
EC50 (nM), CD86 upregulation on human B cells with huMSLN-CHO cells (human CD40 [17]): 0.00776 nM
Kd (cynoCD40(1-193)): 0.9 nM
koff (cynoCD40(1-193)): 0.000407 s⁻¹
kon (cynoCD40(1-193)): 422000 M⁻¹ s⁻¹
Kd (huMSLN(296-598)): 0.1 nM
koff (huMSLN(296-598)): 3.87e-05 s⁻¹
kon (huMSLN(296-598)): 444000 M⁻¹ s⁻¹
Kd (cynoMSLN(296-598)): 4.3 nM
koff (cynoMSLN(296-598)): 0.0012 s⁻¹
kon (cynoMSLN(296-598)): 276000 M⁻¹ s⁻¹
Kd (huCD40(1-193)): 1.2 nM
koff (huCD40(1-193)): 0.000407 s⁻¹
kon (huCD40(1-193)): 321000 M⁻¹ s⁻¹
